Source: the DeepSol protein solubility set

Experiment: soluble on expression in E. coli; label from the status in PepcDB or PDB records

Sequence	soluble on expression in E. coli
MRDEEPVRRLETIVEEERRVVVQGYVFDAEVSELKSGRTLLTMKITDYTNSILVKMFSRDKEDAELMSGVKKGMWVKVRGSVQNDTFVRDLVIIANDLNEIAANERQDTAPEGEKRVELHLHTPMSQMDAVTSVTKLIEQAKKWGHPAIAVTDHAVVQSFPEAYSAAKKHGMKVIYGLEANIVDDGVPIAYNETHRRLGSGSGPFHVTLLAQNETGLKNLFKLVSLSHIQYFHRVPRIPRSVLVKHRDGLLVGSGCDKGELFDNLIQKAPEEVEDIARFYDFLEVHPPDVYKPLIEMDYVKDEEMIKNIIRSIVALGEKLDIPVVATGNVHYLNPEDKIYRKILIHSQGGANPLNRHELPDVYFRTTNEMLDCFSFLGPEKAKEIVVDNTQKIASLIGDVKPIKDELYTPRIEGADEEIREMSYRRAKEIYGDPLPKLVEERLEKELKSIIGHGFAVIYLISHKLVKKSLDDGYLVGSRGSVGSSFVATMTEITEVNPLPPHYVCPNCKHSEFFNDGSVGSGFDLPDKNCPRCGTKYKKDGHDIPFETFLGFKGDKVPDIDLNFSGEYQPRAHNYTKVLFGEDNVYRAGTIGTVADKTAYGFVKAYASDHNLELRGAEIDRLAAGCTGVKRTTGQHPGGIIVVPDYMEIYDFTPIQYPADDTSSEWRTTHFDFHSIHDNLLKLDILGHDDPTVIRMLQDLSGIDPKTIPTDDPDVMGIFSSTEPLGVTPEQIMCNVGTIGIPEFGTRFVRQMLEETRPKTFSELVQISGLSHGTDVWLGNAQELIQNGTCTLSEVIGCRDDIMVYLIYRGLEPSLAFKIMESVRKGKGLTPEFEAEMRKHDVPEWYIDSCKKIKYMFPKAHAAAYVLMAVRIAYFKVHHPLLYYASYFTVRAEDFDLDAMIKGSAAIRKRIEEINAKGIQATAKEKSLLTVLEVALEMCERGFSFKNIDLYRSQATEFVIDGNSLIPPFNAIPGLGTNVAQAIVRAREEGEFLSKEDLQQRGKLSKTLLEYLESRGCLDSLPDHNQLSLFSGGHHHHHHHH	soluble
MQMQPKVGQFRYYPSVGSLNTYLTNMLEKIRVELPDIQRISFALYDEKKDSIKTCADSSPVSHDFVHYELPLANLPSLQQSKESGALRIIHDLANQAKSHTPHNRWLLEQQYCSSLVKPVFDQHTFVGFLFFNASMSHYFSASVVERLETYLSLIQQSICGEYALIHQLVDHVHQIETQSPEHWLHIKQHKERISRYARIIALDVADQYALDDELIENISQFATCHDLGKLALPADLLQKRASLANHEKEQVHNHIEYGIDLLNEVIAKLGTPHHPCLAVLREIMAYHHEFLDGSGYPFGLVSDQIPIPARIIAVANIFDALTAHRPYKQAQSIPHALLELEKMVSDGKLDRHCVNALRENQEELKEIVARFPEQDPKDQGITH	not soluble
SLTGQLHPAVRVADLLQHINQMKTAEGYGFKQEYESFFEGWDATKKKDKVKGSRQEPMPAYDRHRVKLHPMLGDPNADYINANYIDGYHRSNHFIATQGPKPEMVYDFWRMVWQEHCSSIVMITKLVEVGRVKCSRYWPEDSDTYGDIKIMLVKTETLAEYVVRTFALERRGYSARHEVRQFHFTAWPEHGVPYHATGLLAFIRRVKASTPPDAGPIVIHCSAGTGRTGCYIVLDVMLDMAECEGVVDIYNCVKTLCSRRVNMIQTEEQYIFIHDAILEACLCGETTIPVSEFKATYKEMIRIDPQSNSSQLREEFQTLNSVTPPLDVEECSIALLPRNRDKNRSMDVLPPDRCLPFLISTDGDSNNYINAALTDSYTRSAAFIVTLHPLQSTTPDFWRLVYDYGCTSIVMLNQLNQSNSAWPCLQYWPEPGRQQYGLMEVEFMSGTADEDLVARVFRVQNISRLQEGHLLVRHFQFLRWSAYRDTPDSKKAFLHLLAEVDKWQAESGDGRTIVHCLNGGGRSGTFCACATVLEMIRCHNLVDVFFAAKTLRNYKPNMVETMDQYHFCYDVALEYLEGLESR	not soluble
MVDYDKQMKTWIRSQHLICVGSDFIFETVDQTQLDKFETCIRGMGGRIRTVKAVGNWPMGPRRSFKILQATASVPRPGGEALVTYWAKKGSKTTRYSEISS	soluble
MGHHHHHHSHMVALSNALSRVFGSLAGYKFPSFIQKGINALYVKIFKIDLSEFEPLENYRSLNALFTRSLKKERPFDKSPNICIAPCDALITECAFLDNDSALQIKGMPYKAHELVGEINPLSPSFFYANFYLSPKDYHHYHAPCDLEILEARYFAGKLLPVNKPSLHKNNNLFVGNERVTLVAKDIQGNRLYFVAVGALNVGKMRFNFDKNIQTNAKARFTQTYSYNPPIKVKKGDNLGNFEMGSTIVLFIQNTAFKDLKEKNVKFGESIGEFHAN	not soluble
MTDSELMQLSEQVGQALKARGATVTTAESCTGGWVAKVITDIAGSSAWFERGFVTYSNEAKAQMIGVREETLAQHGAVSEPVVVEMAIGALKAARADYAVSISGIAGPDGGSEEKPVGTVWFAFATARGEGITRRECFSGDRDAVRRQATAYALQTLWQQFLQNT	not soluble
MGSDKIHHHHHHVSKPPTIVSVPMPCGSTIEIVAPGSFHIPRVLADGGLKNYEVHSTAAALALMERSEGAFYDIGANIGVFSLCVASALRRRCHAYEPFPDAATVLDELQVRYQLPIAVHRKGVGQTAGQAQFYLSDRSDMSNSLNPNFRKHRGVLDVEVTTLEIELKRDKPAVLKIDTETTEDQVITGGLNQIAHHRPSIIVELLNEAIAGKVRKLLLPLGYRCYAIGGGLRLQELSPIETSLEGDGRNWLFSPNPLDQEFADTFNKWRGVLFSI	not soluble
MGSDKIHHHHHHMQVRIERAERIESELEEHVGDQTFVEESRFLEEDEQREGEILDQIIFVDGKRRSFVRITTDEGITGIFAELCVGAVIWDREGGTKTLFSPDKPPVKERVLGFSQSFQEEGYEEVGGILFKVVKEGKDAMQSIDLYMRSLEIEEVRKHMDKNILIVKDGPAARELPFEENVGPIGLVKNIGVTELSKEDFKKLRFLKKGKRSKMFVSSRETPLKKVGAYVKLIDGEGIRGLVRLETYVKDDNQIPYIRKVFDDLAKTLPHLTADLPIPRLPENILPIQFLEENLSYYLTDKNYMNTRLFAYIGR	soluble
MAHHHHHHMYFVIEEWKNVIIKPSQLGPRYQQYIEDMLRNSVEGQCSVKYGYVICVIRIIHSEPGRVQDGTGMIVVKVKYQAIVFKPFKDEVLDAIVTDVNKLGFFAQAGPLKIFISRTAIPKYFEYSEDLHYPCFSSGDYNIKPQTTVRIKLQGIRYDLSNMFAIATINNEYLGCIESNILQVM	not soluble
MGSDKIHHHHHHMLNIDGSKYIVNNNLKNYLDNIKKPWGILFYRVLWQQLDKIKTSKVLDFGSGFGITANHFASNNMVIAIEPNSELVEARIQENDYIQIVGDLKALKSQKDNYFDVILCHNVFEYAKEREEIFKEFLRILKPGGIISLVKHNHAGRIMQKVVFENNIDEAEKLLNGGIIEVLGFGKVSYYKLEDIKKWCKGFEVEIIKVLGIRTFWALQQDNKIKEDPIWQEKMFKIEMMVSNIDEYVNISFFNHIILKKALKNYALE	not soluble
MAPSQAPSRDRAGQEDEDRWEARGDRKARKPLVEKKRRARINESLQELRLLLAGTEVQAKLENAEVLELTVRRVQGALRGRAREREQLQAEASERFAAGYIQCMHEVHTFVSTCQAIDATVSAELLNHLLESMPLREGSSFQDLLGDSLAGLPGGSGRSSWPPGGSPESPLSSPPGPGDDLCSDLEEIPEAELNRVPAEGPDLVSTSLGSLTAARRAQSVWRPW	not soluble
MFQPEKIDPEEATAAIAEVAYIVTVSDYIGNVIRSLYPQASPKLRTIYSVVDSERFLPGNHPKMQKIRNDIRRAHGLENKTVILFAGRLSRNKGVDKLILALPELAKKFKNLALVIVGSNWFSENDITDYVAYVRALAKRMPVPVVTTGFVPPNEIQNWFAAADLFVCTSQWQEPLARVHYEAMAAGLPIVTTARGGNPEVIFANENGLIVENPEDPSDFANKIAQILSDQSLMRRMGEKGRQLAISIYHWERVASELLEVWEQAEKTEQAVVSEEQAAGMTIEPLKEDATEQLNGPTPKADAKEKVHSKKNAAASSNKTKKGKAKKERAISMEDHQQTAKQKEAAAERTELAKSAPAPKQPQTGRHIKPFTIASGNQQTLDASPKTHLNRKLAQAKHDTKHFTIASSH	not soluble
MHLLLLHGFTSHPVLTLGPLSERLKEAGWEVRQPALPGHGTRPEDLLKVRFQDWLLAAEEAYLELPEPRGVVGLSMGGLLAAHLAARHPTKALVALAPAFALKNPLAPYLHWLIPRFPGPPSIEDPELRKRNPNYPYFPTRAVLELLALMRKTPEVLPRVKARALVVEAGKDRVVKGVDRYFALLGSPRKDHLVFPESGHDLLLDRDREEVARAVRDWLLASDNYLQ	soluble
TDYAVTALRAWTRPLNYDIEHVYRITLATVQKDKDGKWKERSADQGKTMMQTLDLIAAYPGVEAACLQQWGGHYSSSSSNSSFQLDTVSLINVEDRMVSPDYFRVFRVYGADGSSPEEMAERFGKLHMNDLQRDYYLSRNALDYVEKVNGEGRESDRRYIGMSDSINYNMVSVVDGVQSEKSIRYNQTLRGLIPDQPKNEAESTGYISLKPITEEYISQNELISYSVYLRVSPEADTPDFKEQFVKRMKAVTKDDTYPVLTMNAVSEDRAGILADPVRQINNH	not soluble
MTLDLDNMTQAEFDEVMAEIQLQSPNIFQLISDFVNKKVTSVEIDDLLNMKRAETGKALSPLQIQELQYMLEDFSPELIHEALKEAVSQGKANFAYIKVILNRWKQDNLLTVELVRNSRAAREAKKQQTNQLEPTSYEDWIPTQEKPF	not soluble
MGSDKIHHHHHHMTSAYCTVLSKGRLYQAVALFKSLEQVDQDSPIFILCMDEDTHRVLQKLKMKQLNLVPVAALENELLLKLKETRDQSEYCWTMKPIFLQAVLNSNPELERVTYIDGDLFFYADPSPIFENQPDCSVLLSRGDIVIPSFEKEQIDMLQRLLGRYNSGFISFKHDDAGTDCLEWWKERCLEECKNAPGEGKFGDQGYLDYMSELFPNVCDITTPGVNIGHWNYGQHTFSWKDGRIVLEDGSPLIFYHFSGYRIVSINEIKQIHETTRTDLPFVHELYQETLPHIIQHMQTLDPEFNGFASKDDNK	not soluble
PGYLNDIPRHGMFVKDLILLVNDTAAVAYDPMENECYLTALAEQIPRNHSSIVTQQNQVYVVGGLYVDEENKDQPLQSYFFQLDNVSSEWVGLPPLPSARCLFGLGEVDDKIYVVAGKDLQTEASLDSVLCYDPVAAKWSEVKNLPIKVYGHNVISHNGMIYCLGGKTDDKKCTNRVFIYNPKKGDWKDLAPMKTPRSMFGVAIHKGKIVIAGGVTEDGLSASVEAFDLKTNKWEVMTEFPQERSSISLVSLAGSLYAIGGFAMIQLESKEFAPTEVNDIWKYEDDKKEWAGMLKEIRYASGASCLATRLNLFKLSKL	soluble
MLKSIELNSHIRNRLAEYLKGRGMDFQTAMQEEKGNKEIAAIVHSGLPTLVRKLYSEQKMQKFFWEKRDLIADYISRRMQG	not soluble
MGSDKIHHHHHHMAQGTLYIVSAPSGAGKSSLIQALLKTQPLYDTQVSVSHTTRQPRPGEVHGEHYFFVNHDEFKEMISRDAFLEHAEVFGNYYGTSREAIEQVLATGVDVFLDIDWQGAQQIRQKMPHARSIFILPPSKIELDRRLRGRGQDSEEVIAKRMAQAVAEMSHYAEYDYLIVNDDFDTALTDLKTIIRAERLRMSRQKQRHDALISKLLAD	soluble
AHHHHHHGSAEMVIPYPHLQRILEKTCELAVTKPMAERMMEIVERKLADLFEVAYENATAENSETIKMRHIPITKGFRSSMNLFRAVIEDENIKIEPILDYVLRKIPADKPLEEEVINELPIITGTLFVLIGRVIKALHPEVRNVYPEHIEEAEKVLDYTL	soluble
MTDQATPNLPSRDFDSTAAFYERLGFGIVFRDAGWMILQRGDLMLEFFAHPGLDPLASWFSCCLRLDDLAEFYRQCKSVGIQETSSGYPRIHAPELQGWGGTMAALVDPDGTLLRLIQNELLAGIS	soluble
